Experimental data: patent US20230135471A1, “UBIQUITIN VARIANTS WITH IMPROVED AFFINITY FOR 53BP1” (Integrated DNA Technologies, Inc., priority 2021, published 2023)

Biological target: 53BP1 fragment (a.a. 1221-1718) fused to an adenylate cyclase fragment (two-hybrid) (UniProt Q12888)
Test: cell-based or functional assay

Row | Substance | Experiment 1 Average Enrichment [log2] | Experiment 1 Rep 1 Enrichment [log2] | Experiment 1 Rep 2 Enrichment [log2] | Experiment 2 Average Enrichment [log2] | Experiment 2 Rep 1 Enrichment [log2] | Experiment 2 Rep 2 Enrichment [log2]
1 | i53 + A28D two-hybrid fusion (designed binder) | 0.02 | -0.25 | 0.29 | -0.41 | -0.24 | -0.58
2 | i53 + A28E two-hybrid fusion (designed binder) | 0.31 | 0.23 | 0.4 | 0.42 | 0.53 | 0.32
3 | i53 + A28I two-hybrid fusion (designed binder) | 0.05 | -0.45 | 0.56 | 0.05 | 0.37 | -0.28
4 | i53 + A28M two-hybrid fusion (designed binder) | 0.03 | 0.49 | -0.42 | -0.19 | -0.51 | 0.12
5 | i53 + A28Q two-hybrid fusion (designed binder) | 0.44 | 0.47 | 0.42 | 0.14 | 0.59 | -0.31
6 | i53 + A28W two-hybrid fusion (designed binder) | 0.03 | 0.48 | -0.41 | 0.12 | 0.41 | -0.17
7 | i53 + A46G two-hybrid fusion (designed binder) | 0.6 | 0.48 | 0.72 | -0.17 | 1.37 | -1.71
8 | i53 + D21E two-hybrid fusion (designed binder) | 0.51 | 0.2 | 0.82 | -0.23 | -0.63 | 0.16
9 | i53 + D32A two-hybrid fusion (designed binder) | 0.11 | 0.2 | 0.02 | 0.19 | 0.19 | 0.19
10 | i53 + D32E two-hybrid fusion (designed binder) | 0.21 | 0.41 | 0 | -0.19 | -0.11 | -0.28
11 | i53 + D32R two-hybrid fusion (designed binder) | 0.03 | 0.61 | -0.54 | -0.46 | -0.53 | -0.39
12 | i53 + D39E two-hybrid fusion (designed binder) | 0.36 | 0.29 | 0.44 | -0.18 | -0.14 | -0.23
13 | i53 + D39G two-hybrid fusion (designed binder) | -0.21 | -0.2 | -0.22 | 0.06 | 0.6 | -0.49
14 | i53 + D39L two-hybrid fusion (designed binder) | 0.06 | 0.49 | -0.38 | -2.16 | -2.9 | -1.42
15 | i53 + D39Q two-hybrid fusion (designed binder) | -2.78 | -3.1 | -2.46 | 0.03 | -0.45 | 0.51
16 | i53 + D39S two-hybrid fusion (designed binder) | -1.51 | -2.04 | -0.99 | 0.04 | 0.16 | -0.08
17 | i53 + D39W two-hybrid fusion (designed binder) | 0.99 | 0.9 | 1.09 | 0 | 0.86 | -0.85
18 | i53 + D52E two-hybrid fusion (designed binder) | 0.28 | 0.43 | 0.14 | 0.04 | -0.3 | 0.37
19 | i53 + D58S two-hybrid fusion (designed binder) | 0.33 | 0.29 | 0.38 | 0.21 | 0.24 | 0.17
20 | i53 + E16D two-hybrid fusion (designed binder) | -0.2 | -0.69 | 0.3 | 0.13 | 0.42 | -0.15
21 | i53 + E16H two-hybrid fusion (designed binder) | 0.03 | 0 | 0.05 | -0.13 | -0.21 | -0.05
22 | i53 + E16N two-hybrid fusion (designed binder) | 0.11 | -0.32 | 0.54 | 0.26 | 0.34 | 0.18
23 | i53 + E16T two-hybrid fusion (designed binder) | 0.88 | 1.12 | 0.64 | 0.3 | 0.27 | 0.33
24 | i53 + E16Y two-hybrid fusion (designed binder) | 0.35 | 0.23 | 0.47 | -0.22 | -0.32 | -0.11
25 | i53 + E18C two-hybrid fusion (designed binder) | 0.23 | -0.06 | 0.52 | -0.34 | -0.82 | 0.14
26 | i53 + E18D two-hybrid fusion (designed binder) | -0.85 | -0.69 | -1.02 | 0.14 | 1.65 | -1.37
